Data from patent US20040137581A1 (Xencor, published 2004).
Substitutions are numbered along the chain they refer to. Like-named read-outs stand apart in the source and are kept apart here. Blank lines part the entries; values can stand above or below the binder they belong to.

Tests used:
[1] = molecular target: T1, type I interferon receptor (UniProt P17181 28-557; P48551 27-515, limits assumed); test: cell-based or functional assay
T1 sequence (looked up) 1: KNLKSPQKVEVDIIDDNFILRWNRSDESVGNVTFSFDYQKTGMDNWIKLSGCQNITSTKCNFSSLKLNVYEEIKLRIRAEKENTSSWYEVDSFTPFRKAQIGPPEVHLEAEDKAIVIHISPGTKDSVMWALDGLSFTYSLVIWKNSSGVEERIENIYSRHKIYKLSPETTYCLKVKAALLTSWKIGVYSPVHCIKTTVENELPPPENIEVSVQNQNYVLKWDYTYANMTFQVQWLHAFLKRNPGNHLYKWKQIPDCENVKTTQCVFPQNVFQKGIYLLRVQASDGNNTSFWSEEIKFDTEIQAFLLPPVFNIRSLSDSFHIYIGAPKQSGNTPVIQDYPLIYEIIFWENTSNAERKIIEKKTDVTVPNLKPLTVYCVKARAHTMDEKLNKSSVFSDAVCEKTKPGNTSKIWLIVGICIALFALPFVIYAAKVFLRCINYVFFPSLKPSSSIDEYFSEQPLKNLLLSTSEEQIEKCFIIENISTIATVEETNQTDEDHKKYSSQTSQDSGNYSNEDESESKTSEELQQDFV
T1 sequence (looked up) 2: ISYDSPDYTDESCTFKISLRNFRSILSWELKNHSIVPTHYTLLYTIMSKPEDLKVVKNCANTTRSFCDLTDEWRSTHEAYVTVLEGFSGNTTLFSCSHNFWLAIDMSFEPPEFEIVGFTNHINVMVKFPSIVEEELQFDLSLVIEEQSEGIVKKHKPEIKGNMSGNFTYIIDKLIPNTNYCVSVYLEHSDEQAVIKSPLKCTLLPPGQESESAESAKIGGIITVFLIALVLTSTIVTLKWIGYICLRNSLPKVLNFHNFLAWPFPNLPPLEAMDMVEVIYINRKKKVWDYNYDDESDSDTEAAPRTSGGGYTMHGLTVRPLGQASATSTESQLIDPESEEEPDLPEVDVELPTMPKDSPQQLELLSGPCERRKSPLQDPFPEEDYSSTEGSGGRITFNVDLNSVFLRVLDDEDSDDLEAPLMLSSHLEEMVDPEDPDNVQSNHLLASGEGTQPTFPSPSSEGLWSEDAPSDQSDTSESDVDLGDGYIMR

[2] = molecular target: T1, type I interferon receptor; test: cell-based or functional assay; remark: listed apart in the source

EC50, ISRE-luciferase reporter assay in 293T cells [1]: 1.9 ng/mL | EC50 wt/EC50 var, ISRE-luciferase reporter assay in 293T cells [1]: 1 ratio | EC50, ISRE-luciferase reporter assay in 293T cells [2]: 5.31 ng/mL | EC50 wt/EC50 var, ISRE-luciferase reporter assay in 293T cells [2]: 1 ratio
B1: IFN1_1 (ligand)
chain: MGSSHHHHHHSSGLVPRGSHMSYNLLGFLQRSSNFQSQKLLWQLNGRLEYCLKDRMNFDIPEEIKQLQQFQKEDAALTIYEMLQNIFAIFRQDSSSTGWNETIVENLLANVYHQINHLKTVLEEKLEKEDFTRGKLMSSLHLKRYYGRILHYLKAKEYSHCAWTIVRVEILRNFYFINRLTGYLRN

EC50, ISRE-luciferase reporter assay in 293T cells [2]: 0.24 log ng/ml | EC50 wt/EC50 var, ISRE-luciferase reporter assay in 293T cells [2]: 22.1 ratio
B4: IFB1_64 (ligand)
chain: B1 chain with L25Q, F28E, L67K, F131N, L136E, L140R

EC50, ISRE-luciferase reporter assay in 293T cells [1]: 130 ng/mL | EC50 wt/EC50 var, ISRE-luciferase reporter assay in 293T cells [1]: 0.015 ratio
B8: IFB_GM2 (ligand)
chain: B1 chain with L67S, F70S, L126S, F131S, L136S, L140S

The remaining lines, values behind:

B2: IFB1_23 (ligand)
chain: B1 chain with L25Q, F28E, L136E
EC50, ISRE-luciferase reporter assay in 293T cells [2]: 0.277 log ng/ml | EC50 wt/EC50 var, ISRE-luciferase reporter assay in 293T cells [2]: 19.2 ratio

B3: IFB1_39 (ligand)
chain: B1 chain with L25Q, F28E, F131N, L136E
EC50, ISRE-luciferase reporter assay in 293T cells [2]: 0.193 log ng/ml | EC50 wt/EC50 var, ISRE-luciferase reporter assay in 293T cells [2]: 27.5 ratio

B5: IFB1_7 (ligand)
chain: B1 chain with L25Q, F28E
EC50, ISRE-luciferase reporter assay in 293T cells [1]: 0.074 ng/mL | EC50 wt/EC50 var, ISRE-luciferase reporter assay in 293T cells [1]: 25.7 ratio | EC50, ISRE-luciferase reporter assay in 293T cells [2]: 0.179 log ng/ml | EC50 wt/EC50 var, ISRE-luciferase reporter assay in 293T cells [2]: 29.6 ratio

B6: IFB1_2 (ligand)
chain: B1 chain with L25Q
EC50, ISRE-luciferase reporter assay in 293T cells [2]: 0.428 log ng/ml | EC50 wt/EC50 var, ISRE-luciferase reporter assay in 293T cells [2]: 12.4 ratio

B7: IFB1_36 (ligand)
chain: B1 chain with F28E, F131N, L136E
EC50, ISRE-luciferase reporter assay in 293T cells [2]: 0.294 log ng/ml | EC50 wt/EC50 var, ISRE-luciferase reporter assay in 293T cells [2]: 18 ratio

B9: IFB1_15 (ligand)
chain: B1 chain with L25Q, F28E, F131N
EC50, ISRE-luciferase reporter assay in 293T cells [2]: 0.319 log ng/ml | EC50 wt/EC50 var, ISRE-luciferase reporter assay in 293T cells [2]: 16.6 ratio
